In patent US20190194345A1 (UNIVERSITY OF VIRGINIA PATENT FOUNDATION, published 2019):
Numbering of substitutions follows the chain as printed. Each block holds one binder with its values, some of them ahead of it.

Columns and labels:
[1] = target: T1, SAS1B on the surface of live cancer cells (human, UniProt Q6HA08 24-431); test: cell-based or functional assay
T1 sequence: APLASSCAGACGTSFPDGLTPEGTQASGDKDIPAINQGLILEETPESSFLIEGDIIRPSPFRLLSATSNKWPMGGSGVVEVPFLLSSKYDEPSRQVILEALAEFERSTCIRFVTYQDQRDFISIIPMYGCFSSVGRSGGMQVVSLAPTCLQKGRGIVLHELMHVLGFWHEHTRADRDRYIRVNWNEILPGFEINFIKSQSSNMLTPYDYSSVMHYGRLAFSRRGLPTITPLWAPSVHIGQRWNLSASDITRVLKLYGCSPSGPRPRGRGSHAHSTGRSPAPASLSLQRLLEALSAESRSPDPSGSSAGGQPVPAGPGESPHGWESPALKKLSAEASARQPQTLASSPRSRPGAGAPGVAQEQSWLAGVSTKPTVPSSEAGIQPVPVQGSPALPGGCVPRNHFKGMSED

[2] = target: T2, SAS1B C-terminus extracellular domain (aa 160-431) (human, UniProt Q6HA08 160-431); test: western blot (FIG. 22)
T2 construct: also called C-term extracellular domain
T2 sequence: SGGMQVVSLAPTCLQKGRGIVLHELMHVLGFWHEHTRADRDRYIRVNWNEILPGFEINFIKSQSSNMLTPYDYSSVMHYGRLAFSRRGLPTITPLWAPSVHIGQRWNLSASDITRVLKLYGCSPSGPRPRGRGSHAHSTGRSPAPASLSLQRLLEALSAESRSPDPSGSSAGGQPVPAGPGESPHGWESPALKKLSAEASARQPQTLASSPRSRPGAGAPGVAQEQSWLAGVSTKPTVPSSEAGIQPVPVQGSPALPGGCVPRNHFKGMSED

mouse SAS1B = target: T3, mouse SAS1B (mouse, UniProt Q6HA09 24-435, limits assumed); test: summary table (Table 1)
T3 sequence (looked up): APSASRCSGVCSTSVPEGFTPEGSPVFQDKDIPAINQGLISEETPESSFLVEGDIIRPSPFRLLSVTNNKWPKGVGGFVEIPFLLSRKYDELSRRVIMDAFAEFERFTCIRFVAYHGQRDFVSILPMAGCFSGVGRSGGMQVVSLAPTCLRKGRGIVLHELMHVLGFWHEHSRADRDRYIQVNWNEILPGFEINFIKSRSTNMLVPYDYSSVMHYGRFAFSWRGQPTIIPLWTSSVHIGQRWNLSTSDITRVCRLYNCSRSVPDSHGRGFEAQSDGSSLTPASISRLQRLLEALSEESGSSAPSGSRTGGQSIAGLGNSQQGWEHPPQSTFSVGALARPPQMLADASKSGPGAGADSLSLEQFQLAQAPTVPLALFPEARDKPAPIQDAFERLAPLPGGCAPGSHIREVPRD

[3] = target: T4, SAS1B extracellular domain (aa 164-431) polypeptide (human, UniProt Q6HA08 164-431); test: western blot, mammalian cell-expressed recombinant SAS1B
T4 construct: mammalian cell-expressed recombinant; also called truncated SAS1B
T4 sequence: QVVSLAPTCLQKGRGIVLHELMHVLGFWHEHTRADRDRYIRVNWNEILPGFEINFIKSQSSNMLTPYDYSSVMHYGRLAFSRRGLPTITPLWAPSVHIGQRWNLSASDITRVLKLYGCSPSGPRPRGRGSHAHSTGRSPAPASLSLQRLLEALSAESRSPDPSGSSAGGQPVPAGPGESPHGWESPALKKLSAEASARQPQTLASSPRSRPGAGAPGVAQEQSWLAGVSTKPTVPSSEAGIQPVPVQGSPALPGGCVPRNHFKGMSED
Method: SAS1B monoclonal antibodies were analyzed with mammalian cell-expressed recombinant SAS1B by western blotting.

B1: anti-human SAS1B murine monoclonal antibody SB4 (antibody, IgG2a, V domains shown)
VH: EVQLQQSGPELVKPGSSVKISCKPSGYTFTDYNMVWMKQSHGKSLEWIGAINPNNGGTTYNQKFKGKATLTVDKSSSTAYMELRSLTSEDSAVYYCAPNWDWFAYWGQGTLVTVSA
VL: DVLMTQTPLSLPVSLGDQASISCRSSQSILHSNGNTYLEWYLQKPGQSPKLLIYKVSNRFSGVPDRFSGSGSGTDFTLKISRVEAEDLGVYYCFQGSHVPFTFGSGTKLEIK
notes: Mouse hybridoma antibody, isotype IgG2a-k; also called SB4 mAb
- percent of cells killed at 0.1 nM mAb, ADC assay with anti-mouse Fab-cleavable-Duocarmycin, pancreatic cancer cells 366, ~72 h, cellular ATP [1]: 33%
- percent of cells killed at 1 nM mAb, ADC assay with 15 nM anti-mouse Fab-cleavable-Duocarmycin, MPanc96 pancreatic cancer cells, ~72 h, cellular ATP [1]: 64%
- percent of cells killed at 1 nM mAb, ADC assay with anti-mouse Fab-cleavable-Duocarmycin, pancreatic cancer cells 366, ~72 h, cellular ATP [1]: 77%
- binding result [2]: no binding
- binding result (mouse SAS1B): no binding
- binding result [3]: no binding

B3: anti-human SAS1B murine monoclonal antibody SB7 (antibody, IgG2b, V domains shown)
VH: B1 VH
VL: B1 VL with T7I
- binding result [2]: no binding
- binding result (mouse SAS1B): no binding
- binding result [3]: no binding

B4: anti-human SAS1B murine monoclonal antibody SB2 (antibody, IgG2b, V domains shown)
VH: B1 VH with P24A, M37V, I51V, T59S, A97V
VL: B1 VL with I29L, L30V, K50N
notes: also called SB2 mAb
- percent of cells killed at 0.1 nM mAb, ADC assay with anti-mouse Fab-cleavable-Duocarmycin, pancreatic cancer cells 366, ~72 h, cellular ATP [1]: 59%
- percent of cells killed at 1 nM mAb, ADC assay with 15 nM anti-mouse Fab-cleavable-Duocarmycin, MPanc96 pancreatic cancer cells, ~72 h, cellular ATP [1]: 80%
- percent of cells killed at 1 nM mAb, ADC assay with anti-mouse Fab-cleavable-Duocarmycin, pancreatic cancer cells 366, ~72 h, cellular ATP [1]: 88%
- viability at 0.01 nM mAb, ADC assay with Fab-anti-mouse IgG Fc conjugated to Duocarmycin DM (cleavable linker), uterine cancer cells [1]: 66%
- binding result [2]: no binding
- binding result (mouse SAS1B): no binding
- binding result [3]: no binding

B6: anti-human SAS1B murine monoclonal antibody SB3 (antibody, IgG2b, V domains shown)
VH: B1 VH with P24A, M37V, I51V, T59S, A97V
VL: B1 VL with I29L, L30V, K50N
notes: also called SB3 mAb
- binding result [2]: no binding
- binding result (mouse SAS1B): no binding
- binding result [3]: no binding

More lines, main results first:

- binding result [2]: no binding
- binding result (mouse SAS1B): no binding
- binding result [3]: no binding
B2: anti-human SAS1B murine monoclonal antibody SB6 (antibody, IgG2b, V domains shown)
VH: B1 VH
VL: B1 VL with T7I

- binding result [2]: no binding
- binding result (mouse SAS1B): no binding
- binding result [3]: no binding
B5: anti-human SAS1B murine monoclonal antibody SB5 (antibody, IgG2b, V domains shown)
VH: B1 VH
VL: B1 VL with T7I
notes: Mouse hybridoma antibody, isotype IgG2b-k; also called SB5 mAb
- percent of cells killed at 0.1 nM mAb, ADC assay with anti-mouse Fab-cleavable-Duocarmycin, pancreatic cancer cells 366, ~72 h, cellular ATP [1]: 49%
- percent of cells killed at 1 nM mAb, ADC assay with 15 nM anti-mouse Fab-cleavable-Duocarmycin, MPanc96 pancreatic cancer cells, ~72 h, cellular ATP [1]: 57%
- percent of cells killed at 1 nM mAb, ADC assay with anti-mouse Fab-cleavable-Duocarmycin, pancreatic cancer cells 366, ~72 h, cellular ATP [1]: 76%
- viability at 0.01 nM mAb, ADC assay with Fab-anti-mouse IgG Fc conjugated to Duocarmycin DM (cleavable linker), uterine cancer cells [1]: 87%

- binding result [2]: no binding
- binding result [3]: no binding
B7: anti-human SAS1B murine monoclonal antibody SB1 (antibody, IgG2a, V domains shown)
VH: EVQLQQSGPELVKPGSSVKISCKASGYTFTDYNMDWVKQSHGKSLEWIGAINPNNGGTSYNQKFKGKATLTVDKSSSTAYMELRSLTSEDSAVYYCATNEYWGQGTTLTVSS
VL: NIVMTQSPKSMSMSVGERVTLSCKASENVGTYVSWYQQKPEQSPKLLIYGASNRYTGVPDRFTGSGSATDFTLTISSVQAEDLADYHCGQSYSYPWTFGGGTKLEIK
notes: also called SB1 mAb
